We go through one molecule from paper PMC10694151, “Regulation of the cell division hydrolase RipC by the FtsEX system in Mycobacterium tuberculosis” (Nature Communications, 2023).

The assay has as its target T1, RipC (Rv2190c) of Mycobacterium tuberculosis, construct RipCΔ33 (Mycobacterium tuberculosis, UniProt P9WHU3 34-385).
T1 construct: also called MtbRipC; RipC∆33
T1 sequence: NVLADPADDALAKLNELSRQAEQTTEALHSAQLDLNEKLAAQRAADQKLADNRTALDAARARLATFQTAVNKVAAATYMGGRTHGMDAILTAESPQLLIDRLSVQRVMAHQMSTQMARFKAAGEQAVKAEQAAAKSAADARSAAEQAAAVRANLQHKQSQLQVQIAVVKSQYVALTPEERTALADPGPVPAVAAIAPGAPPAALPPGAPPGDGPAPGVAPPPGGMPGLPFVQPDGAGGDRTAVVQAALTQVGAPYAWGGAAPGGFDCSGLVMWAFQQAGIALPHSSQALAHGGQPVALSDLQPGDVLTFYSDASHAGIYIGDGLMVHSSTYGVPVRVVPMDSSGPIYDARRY
Briefly: cryo-EM structure; FtsEX or FtsEX-RipC in peptidiscs, 3 mg/ml, ATP-free. The settings on record: both partners purified.

B1: FtsX (Rv3101c) of Mycobacterium tuberculosis (natural protein)
chain: MRFGFLLNEVLTGFRRNVTMTIAMILTTAISVGLFGGGMLVVRLADSSRAIYLDRVESQVFLTEDVSANDSSCDTTACKALREKIETRSDVKAVRFLNRQQAYDDAIRKFPQFKDVAGKDSFPASFIVKLENPEQHKDFDTAMKGQPGVLDVLNQKELIDRLFAVLDGLSNAAFAVALVQAIGAILLIANMVQVAAYTRRTEIGIMRLVGASRWYTQLPFLVEAMLAATMGVGIAVAGLMVVRALFLENALNQFYQANLIAKVDYADILFITPWLLLLGVAMSGLTAYLTLRLYVRR
notes: also called MtbFtsX
As to B1, the binding result is recorded as “binds”.
